Assay results taken from PMC7052508 (Biochemistry and Biophysics Reports, 2020).
Read-outs that look alike come from different tables or passages of the source.

B1: creatine kinase M (CKMM) (enzyme)
chain: not shown
B2: α-crystallin (fraction containing αA-crystallin and αB-crystallin) (complex, porcine (purified from porcine lenses))
chain 1: MDIAIQHPWFKRALGPFYPSRLFDQFFGEGLFEYDLLPFLSSTISPYYRQSLFRTVLDSGVSEVRSDRDKFVIFLDVKHFSPEDLTVKVQEDFVEIHGKHNERQDDHGYISREFHRRYRLPSNVDQSALSCSLSADGMLTFSGPKVPSGVDAGHSERAIPVSREEKPSSAPTS
chain 2: MDIAIHHPWIRRPFFPFHSPSRLFDQFFGEHLLESDLFPASTSLSPFYFRPPSFLRAPSWIDTGLSEMRLEKDRFSVNLDVKHFSPEELKVKVLGDVIEVHGKHEERQDEHGFISREFHRKYRIPADVDPLTITSSLSSDGVLTVNGPRRQASGPERTIPITREEKPAVTAAPKK

How the values were obtained:
[1] = biological target: B2; assay: ITC
[2] = biological target: B2; assay: ITC; remark: listed apart in the source
[3] = biological target: B2; assay: ITC; remark: listed apart in the source
[4] = biological target: B2; assay: ITC; remark: listed apart in the source
creatine kinase M (CKMM) [5] = biological target: B1; assay: ITC
creatine kinase M (CKMM), sequence (P00563 whole entry): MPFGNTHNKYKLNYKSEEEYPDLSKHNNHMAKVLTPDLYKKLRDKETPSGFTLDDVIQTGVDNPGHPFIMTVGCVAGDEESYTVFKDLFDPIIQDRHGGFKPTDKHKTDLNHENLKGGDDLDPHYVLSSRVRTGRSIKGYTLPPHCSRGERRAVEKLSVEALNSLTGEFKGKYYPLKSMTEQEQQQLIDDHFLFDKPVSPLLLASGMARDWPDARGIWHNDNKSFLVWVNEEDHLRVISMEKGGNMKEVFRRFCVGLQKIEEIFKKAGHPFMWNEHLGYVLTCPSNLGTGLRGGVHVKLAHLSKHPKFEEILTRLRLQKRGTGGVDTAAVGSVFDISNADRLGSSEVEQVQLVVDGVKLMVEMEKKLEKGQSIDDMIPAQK

SEC-MALS = biological target: the molecule itself; assay: SEC-MALS
creatine kinase M (CKMM) [6] = biological target: B1; assay: ITC; remark: listed apart in the source
creatine kinase M (CKMM) [7] = biological target: B1; assay: ITC; remark: listed apart in the source

stoichiometry N [1]	dH [2] [kJ/mol]	stoichiometry N [2]	dH [3] [kJ/mol]	stoichiometry N [3]	dH [4] [kJ/mol]	stoichiometry N [4]	Ka (creatine kinase M (CKMM) [5]) [M⁻¹]	Kd (creatine kinase M (CKMM) [5]) [nM]	Ka (creatine kinase M (CKMM) [6]) [M⁻¹]	Kd (creatine kinase M (CKMM) [6]) [nM]	Ka (creatine kinase M (CKMM) [7]) [M⁻¹]	Kd (creatine kinase M (CKMM) [7]) [nM]	Binder	stoichiometry N (SEC-MALS)
28	362	0.068	428	0.068	544	0.063							B1	
							3e+06	333	1.23e+06	816	4.37e+06	228	B2	28 to 40
